Assay: yeast display, Sf9 membrane polyspecificity reagent, FACS + sequencing; frameworks hold sequencing errors
Outline: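 A synthetic nanobody library was expressed on Saccharomyces cerevisiae BJ5465 by galactose induction for 36–48 hours. The library was stained for 1 hour at 4 °C with 10% biotinylated, detergent-solubilized Sf9 membrane reagent and enriched with streptavidin microbeads before FACS. Low and high (top ~1%) gates were set on anti-HA fluorescence for expression and streptavidin fluorescence for reagent binding, and each polyreactivity label reflects the gate of origin.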

Sequence	polyreactivity (PSR sort gate)
QVQLVESGGGIVQSGGSLGLSCAASGYTFRTNVMGWYRQAPGKERELVATINWRGGSTYYADSVKGRFTISRDTAKNTVYLQMNSLKPEDTAVYYCAKTYSYYRTMDYWGQGTQVTGSS	low polyreactivity
QVQLVESGGGKVQAGGSLRLICAASGSTFTYNTMGWYRQAPGKERELVAAISSGGSTYYADSVKGRFTISRDNAKNTVYLQLNSLNPVDTAVYYCAATAQKYSRYGSRYYYWGQGTQVTVSS	high polyreactivity
QVQLVESGGGLAQAGGSLRLSCAASGNIFRINGMGWYRQAPGKERELVASITRSGSTYYADSVKGRFTISRDNAKNTVYLQMNSLKPEDTAVYFCAADSRRYGVRFDYWGQGTQVTVSS	low polyreactivity
QVQLVESGGGLAQAGGSLRLSCAASGRTFRRYAMGWYRQAPGKEREMVAAITSGGDTYYADSVKGRFTISRDNAKNTVYLQMNSLKPEDTAVYYCNAASVTRRTGIRAVDFDYWGQGTQVTVSS	high polyreactivity
QVQLVESGGGLDHAGGPLRLSCAASGTIFAYYNMGWYRQPPGKERELVAGISKRGGNTYYADSVKGRFTISRDNAKNTVYLQMNSLKPEDTAVYYCNKRYSANTRGYYYWGQGTQVTVSS	high polyreactivity
QVQLVESGGGLDQAGGRLPLTWAASGFTFWKYAMGLYRQAPGKERELVAANSVSGGRTYYADSVKGRFTISRDNAKNTVSLQMNRLKPEDTAVYFCNATPWRPYVGGEYWGQGTQVTVSS	high polyreactivity
QVQLVESGGGLDQAGGRLRLSCAASGRTFIVFAMGWYRQAPGKESELVAGITRGSTNYADSVKGRFTISRDNAKNTVYLQMNSLKPEDTEVYYCATEVYIWPWGTVYAFEYDYWGQGTQVTVSS	high polyreactivity
QVQLVESGGGLDQAGGRLRLSSAASGYTFRNYAKGLYRQATGQERELVAAITSSTSSTYYADSVKGRFTISRDNAKNTVYLQMNSLKPEDTAVYYCNRVWSPYMDYWGQGTQVTVSS	high polyreactivity
QVQLVESGGGLDQAGGSLPLSCAASGSTFPGNAMGWYSQARGKERELVARINDGADTNYADSVKGRFTISRDNAKNTVYLQMNSLKPEDTAVYYCAADKRGTVYLSSFWMDYWGQGTQVTVSS	low polyreactivity
QVQLVESGGGLDQAGGSLRLICAASGRIFDVNAMGWYRQAPGKERELVAAISDSGGSTYYADSVKGRFTISRDNAKNTVYLQMNSLKPEDTAVYYCNANTPSLKRSTFNYWGQGTQVTVSS	low polyreactivity
QVQLVESGGGLDQAGGSLRLICAASGSTFISNVMGWYRPAPGKERELVAAITRSSGRTYYADSVKGRFTISRDNAKNTVYLQMNSLKPEDTAVYYCAARPRGRGVDYWGQGTQVTVSS	high polyreactivity
QVQLVESGGGLDQAGGSLRLICAASVRTFFVNAMGRYRQAPGKERELVATITFSGDSTYYADSVKGRFTISRDNAKNTVYLQMNSLKPADTAVYYCAAYQGQKGYDYWGQGTQVTVSS	high polyreactivity
QVQLVESGGGLDQAGGSLRLRCAASGIIFDYNGMGWYRQAPGKERELVAVISFSGSGTYYADSVKGRFTISRDNAKNTVYLHMNSLKPEDTAVYYCAADTGPYFEYEYWGQGTQVTVSS	low polyreactivity
QVQLVESGGGLDQAGGSLRLSCAAAGSIFDYYAMGSYRQAPGKERELVAAISWSGGSTYFADSVKGRFTISRDNAKNTVYLQMNSLKPEDTAVYYCAARGFWGQGTQVTVSS	low polyreactivity
QVQLVESGGGLDQAGGSLRLSCAASASIFWGYDMGWYRQAPGKEREFVARISYSGGSTSYAESVKGRFTISRDNAKNTVYLQMNSLKPEDTAVYYCAADEGVFWWTYPYDSWGQGTQVTVSS	low polyreactivity
QVQLVESGGGLDQAGGSLRLSCAASASTFYANAMGWYRQSPGKEREFVAAIDWSGATTYYADSVKGRFTISRDNAMNTVYLQMNSLKPEDTAVYYCAAEVYFLATGTWYDYWGLGTQVTVSS	high polyreactivity
QVQLVESGGGLDQAGGSLRLSCAASGAIFPIYAMGWYRQAPGKERELVAAINRSGGSTYYADSVKGRFTISRDTAKNTVYLQMNSLKPEDSAVYYCNADYGYHNQLFWGYYGWSSDHWGQGTQVTVSS	low polyreactivity
QVQLVESGGGLDQAGGSLRLSCAASGFIFKYYVMGWYRQAPGKERELVAAISLSDARTNYADSVKGRFTISRDNAKNTVYLQMHSLKPVDTAFYYCAAKSHYYTSGHRHYDYWGQGTQVTVSS	high polyreactivity
QVQLVESGGGLDQAGGSLRLSCAASGFIFNNYAMGSYRQAPGKERELVAAITWSGGGTYYADSVKGRFTISRDNAKNTVYLQMNSLKPEDTAVYYCADYYPAYRDEYWGQGTQVTVSS	high polyreactivity
QVQLVESGGGLDQAGGSLRLSCAASGFIFPAYAMGWYRQAPGKERELVAAITTRGGSTYYADSVKGRFTISRDNAKNTVYLQMNSLKPEDTAVYYCAAYAVWYRYYYWGQGTQVTVSS	low polyreactivity
QVQLVESGGGLDQAGGSLRLSCAASGFIFSYYTMGWYRHAPGKERELVAAIRSSGGSTYADSVKGRFTISRDNAKNTVYLQMNSLKPEDTAVYYCAAESYYPAGIRGYWGQGTQVTVSS	high polyreactivity
QVQLVESGGGLDQAGGSLRLSCAASGFIFVYNVMGWYRQAPGKEREFVATITWRGVTTYYADSVKGRFTISRDNAKNTVYLQMNSLKPEDTAVYYCAVTVAYSYPRRSHYYWGQGTQVTVSS	low polyreactivity

Sequence	polyreactivity (PSR sort gate)
QVQLVESGGGLDQAGGSLRLSCAASGFIFYQNAMGWYKQAPGKERELFAAISTTGSRTYYADSVKGRFTISRDNPKNTVYLQMNRLKPVDTAVYYCATPLQQEGDWGQGTQVTVSS	high polyreactivity
QVQLVESGGGLDQAGGSLRLSCAASGFILDTYGMGWYRQATGTERELVAAISQSDVSTYYADSVKGRFTISRDNAKNTVYLQMNSLKPEDTAVYYCAAAHLSYRRRYESWGQGTQVTVSS	low polyreactivity
QVQLVESGGGLDQAGGSLRLSCAASGGIFDDYAKGRYRQAPRKERELVAAISSSGGSTYYADSVKGRFTISLDNAKNTVYLQMNSLKPEYTAVYLCNADSRGSFGYWGQGTQVTVSS	high polyreactivity
QVQLVESGGGLDQAGGSLRLSCAASGIIFGTNAMGWYIQAPGKESELVAAITWSGGNTTYADSVKGRFTISRDNAKNTVYLQMNSLKPEDTAVYYCAADFTRAGDYDYWGQGTQVTVSS	low polyreactivity
QVQLVESGGGLDQAGGSLRLSCAASGIIFPVYARGGYRQAPGKERELVAAISSVGSTNYADSVKGRFTISRDNAKNTVYLQMNSLKPEDTAVYYCAVDWAQEDGYWGQGPQVTVSS	low polyreactivity
QVQLVESGGGLDQAGGSLRLSCAASGIIFSLYAMGSYRQAPGKERELVAAISASDGDTYYADSVKGRFTISRDNAKNTVYLQMNSLKPEDTAVYYCAADATYYLGYEAEYYYWGQGTQVTVSS	low polyreactivity
QVQLVESGGGLDQAGGSLRLSCAASGIIFWEYAMGWYRQAPGKERELVAAINARGTRTYYADSVKGRFTISRDNAKNTVYLQMNSLKPEDTAVYYCAADRYGWTRYDSWGQGTQVTVSS	high polyreactivity
QVQLVESGGGLDQAGGSLRLSCAASGIIPYYYVMGWYRQAPGKERELVAAINRSGTSTYYADSVKGRFTISRDNAKNTVYLQMNSLKPEDTAVYYCAAERYWSGGVFDYDYWGQGTQVTVSS	high polyreactivity
QVQLVESGGGLDQAGGSLRLSCAASGITFKSNAMGWYRQAPGKESELVAAISRRASSTYYADSVKGRFTISRDNAKHTVYLQMNSLKPEDTAVYYCNAVLPVYRTNMDYWGQGTQVTVSS	high polyreactivity
QVQLVESGGGLDQAGGSLRLSCAASGITFKSYAMGWYRQAPGKERELVAAITYRSGSTYYADSVKGRFTISRDNAKNTVYLQMNSLKPEDTAVYYCAVGGKFQIQTYYQRYNYWGQGTQVTVSS	high polyreactivity
QVQLVESGGGLDQAGGSLRLSCAASGITFQWYTMGWYIQAPGKERDLVATISSGGSTNYADSVKGRFTISRDNAKNTVYLQMKSLKPEDTAVYYCAKQPTVYHHYGLGYWGQGTQVTVSS	low polyreactivity
QVQLVESGGGLDQAGGSLRLSCAASGITFSTYAMGWYRQAPGKEREFVAAISASGGTTYYADSVKGRFTISRDNAKNTVYLQMNSLKPEDTAVYYCAADRFRVYLIYIWAMGYWGQGTQVTVSS	high polyreactivity
QVQLVESGGGLDQAGGSLRLSCAASGITFYRYVKGWYRQAPGKEREYVAAINWSTGTTNYADSVKGRFTISRDNAKNTVYFQMNILKPEDTAVYYCNARYRLRYIYSLRYDYWGQGTHVTVSS	high polyreactivity
QVQLVESGGGLDQAGGSLRLSCAASGLTFPTNARGWYRQAPGKEREFVAAITSRGGTTYYADSVKGRFTISRDNAKNTVYLQMNSLKPEETAVYYCGALSVTIYQYDSYGYWGQGTQVSVSS	low polyreactivity
QVQLVESGGGLDQAGGSLRLSCAASGLTFQWNAMGWYRQAPGKERELVAGITDIGDSTYYADSVKGRFTISRDNAKHTDYLQLNSLKPEDTAVYYCNATSGYKHAWRSENGYWGQGTQVTVSS	low polyreactivity
QVQLVESGGGLDQAGGSLRLSCAASGLTFYYYAMGWYRQAPGKERELVAAITWRGVSTYYADSVKGRFTISRDNAKNTVYLQMNSLKPEDTAVYYCAAGWTSSRYDFWGQGTQVTVSS	high polyreactivity
QVQLVESGGGLDQAGGSLRLSCAASGMTFHPYAMGWYRQAPGKERELVAAISSRGTSTYYADSVKGRFTISRDIAKNTVYLQMNSLKPEDTAVYYCAAEVITIGLYRYGYWGQGTQVTVSS	high polyreactivity
QVQLVESGGGLDQAGGSLRLSCAASGNTSPVNAMGWYRQAPGKERELVAAITQSGGSTYYADSVKGRFTISRDNAKNTVYLQMNSLKPEDTAVYYCAAPDAGWRDGGDYWGQGTQVTVSS	low polyreactivity
QVQLVESGGGLDQAGGSLRLSCAASGRIFIKNTMGWYRQAPGKERELVAAITSSGSSTYYADSVKGRFTISRDNAKNTVYLKMNSLKPEDTAVYYCNALTWDHSRTGVDYWGQGTQVTVSS	low polyreactivity
QVQLVESGGGLDQAGGSLRLSCAASGRIFKRYAMGWYRQAPGKERELVAAITRSGTRTYYADSVKGRFTISRDNAKNTVYLQMNSLKPEDTAVYYCAAALGWYSAFGYWGQGTQVTVSS	high polyreactivity
QVQLVESGGGLDQAGGSLRLSCAASGRIFNKYAMGWYRQAPGKERELVAAISSGASTYYADSVKGRFTISRDNAKNTVYLQMNSLKPEDTAVYYCAAGGSKGGNYWGQGTQVTVSS	high polyreactivity

Reference: the nanobody polyreactivity screen of Harvey et al. (2022)
